Usually Kd stands for the concentration at which binding is half-saturated. Read a low Kd as tighter binding.

Drawing on patent US20120263675A1 (REGENTS OF THE UNIVERSITY OF MICHIGAN, published 2012), this text covers Kd for one molecule.

In test [1] the target is T1, Human cIAP2 BIR3-only (residues 238-349) (human, UniProt Q13489 238-349).
T1 construct: range 238-349; Cloned into pHis-TEV vector, produced and purified as for XIAP BIR3; also called cIAP-2 BIR3 protein; not shown: tag from pHis-TEV vector
T1 sequence (Q13489 238-349): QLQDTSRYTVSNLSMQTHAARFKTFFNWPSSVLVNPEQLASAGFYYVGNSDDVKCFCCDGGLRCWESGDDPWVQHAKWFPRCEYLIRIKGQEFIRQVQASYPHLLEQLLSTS
Put plainly: fluorescence polarization, tracer binding to cIAP-2 BIR3. On the technique in general: Polarisation of emitted light reports the rotation of a fluorescent probe.

Test [2] deals with T2, Human cIAP-1 BIR3-only (residues 253-363) (human, UniProt Q13490 253-363).
T2 construct: range 253-363; Cloned into pHis-TEV vector, produced and purified as for XIAP BIR3; also called cIAP-1 BIR3 protein; not shown: tag from pHis-TEV vector
T2 sequence (Q13490 253-363): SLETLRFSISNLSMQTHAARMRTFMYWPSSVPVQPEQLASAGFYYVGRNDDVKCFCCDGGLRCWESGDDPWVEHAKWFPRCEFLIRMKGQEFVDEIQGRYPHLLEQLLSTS
Put plainly: fluorescence polarization, tracer binding to cIAP-1 BIR3.

The target in test [3] is T3, Human XIAP BIR3-only (residues 241-356) with N-terminal 6x His tag (human, UniProt P98170 241-356).
T3 construct: range 241-356; Recombinant, produced in E. coli BL21(DE3); also called XIAP BIR3 protein; not shown: N-terminal 6x His tag from pET28 vector
T3 sequence (P98170 241-356): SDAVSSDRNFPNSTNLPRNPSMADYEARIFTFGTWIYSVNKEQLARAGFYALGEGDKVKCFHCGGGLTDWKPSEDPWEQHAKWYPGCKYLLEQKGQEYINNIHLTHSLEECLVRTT
Put plainly: fluorescence polarization, tracer binding to XIAP BIR3. An excerpt: The FP-based assay for XIAP BIR3 protein was described in detail previously (Nikolovska-Coleska et al., Anal. Biochem. 332:261-73 (2004)). Briefly, 5-carboxyfluorescein was coupled to the lysine side chain of a mutated Smac peptide with the sequence (AbuRPFK-Fam) and this fluorescently tagged peptide (named SM5F) was used as the fluorescent tracer in FP-based binding assay to XIAP BIR3.

Square brackets hold non-standard residues; d marks the D form. Ends that are not written are not given here. * marks the point of attachment. 5FAM = O=C1OC2(c3ccc(O)cc3Oc3cc(O)ccc32)c2ccc(C(=O)*)cc21; Abu = CC[C@H](N)C(=O)O

B1: SM5F, fluorescently tagged mutated Smac peptide (AbuRPFK-Fam) (peptide)
peptide: [Abu]RPFK(5FAM)
notes: Mutated Smac N-terminal peptide used as tracer in the FP assays; also called fluorescent tracer
Take B1: the Kd in test [1] was found to be 6.6 nM; in test [2] it was 4.1 nM; in test [3], 17.9 nM.
